Read-outs that look alike come from different tables or passages of the source.
Legend:
[1] = tested on: rat anterior pituitary cell cultures; experiment: Rat primary anterior pituitary cell bioassay (GH release, radioimmunoassay); type: cell-based
Experimental: Rat anterior pituitary cell cultures were prepared for measuring the biological activity of GHRH, GHRH-induced release of GH was quantified using radioimmunoassay. Anterior pituitaries from fifteen female Sprague-Dawley rats were placed in a solution of Gey's media supplemented with 1% BSA, 0.25% glucose, and 0.2 mM MEM non essential amino acids at pH 7.4. Cell dispersion was performed in a solution of 400 U/ml trypsin in supplemented Gey's media for 30 minutes, 1750 KU/ml DNase-I in supplemented Gey's media for 5 minutes, and cells were triturated 15-30 times in 0.6 mg/ml lima bean trypsin inhibitor in supplemented Gey's media. Cells were filtered thru 160 u and 100 u mesh and centrifuged for 3 minutes at 1100 RPM and 12 minutes at 1600 rpm. Cell pellet was suspended at 3×10^5 cells/ml in DMEM supplemented with 10% fresh rat serum, 3% horse serum, 2.5% fetal calf serum, 2% Antibiotic-Antimycotic, 0.3% Fungizone, 0.45% glucose, 25 mM Hepes, 4 mM glutamine, 1 mM sodium pyruvate, 1 nM 3,3',5-triiodo-L -thyronine (T3), 100 nM dexamethazone and 10 uM MEM non essential amino acids. Cells were plated at 1 ml/well in 24 well plates and incubated at 8% CO2 at 37 C. for 68-72 hours. To stimulate cells with hormones, cells were washed three times in Gey's media supplemented with 1% BSA, 0.45% glucose and 25 mM Hepes. GHRH (1-44)NH2 was added to cells in 1 ml of supplemented Gey's media and cells were incubated for 3 hours before collecting media. Rat growth hormone levels were quantitated using a radioimmunoassay kit (Amersham).
(§1) Predicted variances in SEAP responses=0.32×(Y)^154.

[2] = biological target: T1, porcine GHRH receptor (Sus scrofa, UniProt P34999)
T1 sequence (P34999 23-423): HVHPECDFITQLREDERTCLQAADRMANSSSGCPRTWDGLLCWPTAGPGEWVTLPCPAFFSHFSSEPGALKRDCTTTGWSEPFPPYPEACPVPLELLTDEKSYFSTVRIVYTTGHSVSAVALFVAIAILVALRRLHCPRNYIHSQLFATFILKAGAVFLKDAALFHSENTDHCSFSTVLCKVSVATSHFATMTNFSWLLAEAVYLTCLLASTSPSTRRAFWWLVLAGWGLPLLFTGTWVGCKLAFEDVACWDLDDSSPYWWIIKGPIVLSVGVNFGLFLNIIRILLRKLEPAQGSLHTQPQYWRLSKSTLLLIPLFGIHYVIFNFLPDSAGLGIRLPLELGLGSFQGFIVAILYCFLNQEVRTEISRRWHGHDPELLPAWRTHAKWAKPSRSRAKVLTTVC
Experimental: Assays for secreted alkaline phosphatase (SEAP) were performed using the chemiluminescent substrate in the Great Escape Detection Kit (Clontech). Culture medium was centrifuged at 14000 rpm in a microfuge centrifuge to remove cell debris. One hundred microliters of culture medium was then added to 300 ul of dilution buffer and heated at 65 C. for 30 minutes. Samples were cooled to room temperature and 100 ul of diluted sample was added to 100 ul of assay buffer. Samples were allowed to set for 5 minutes. One hundred microliters of the CSPD substrate solution was then added to each sample, incubated in the dark for 10 minutes and read on a Wallac LKB 1251 tube luminometer.
A stable transfection was performed in pGHRHr/293 cells using the cAMP-responsive SEAP reporter construct, pha180SEAPpur and stable transfectants were selected on the basis of puromycin resistance. pha180SEAPpur was transfected into pGHRHr/293 cells at 1, 2, 4, 8 and 16 ug/ml Opti-MEM using 8 ul of Lipofectin/ml in six well culture plates. After six hours, 1 ml of 20% fetal calf serum in DME (high glucose) was added to the cells. Twenty-four hours post-transfection the cells were subcultured 1:18 and were incubated in 250 ug/ml G418. Forty-eight hours post-transfection the media was replaced with selectable medium containing 250 ug/ml G418 and 1 ug/ml puromycin. Cells were incubated for three weeks and picked using Trypsin-EDTA treated Whatman 3MM paper and placed in 24 well plates. Upon growing stable isolates to confluency in T75 cm^2 culture flasks, pGHRHr/SEAP/293 cells were removed from flasks, plated in 24 well plates at 1×10^5 cells/well and stimulated with various doses of recombinant human GHRH (1-44)NH2. Media was collected and assayed for secreted placental alkaline phosphatase. Time course studies were performed over a 20 hour period to determine the optimal time to remove media samples from the tissue cultures during stimulation with GHRH. Comparisons of synthetic and recombinant human GHRH (1-44)NH2 (10^-13 to 10^-7 M) were also made. Data was analyzed using FOURFIT and ALLFIT, four parameter logistic curve fitting programs.
Sigmoidal dose response curves were fit by four parameter logistic curve fitting using FOURFIT (Grotjan and Steinberger, 1977), with multiple curves being compared using ALLFIT (DeLean et al.,1978). […] For cAMP and SEAP bioassays, a weighted regression analysis was performed with weights assigned as the reciprocal of predicted variance.

[3] = biological target: T1, porcine GHRH receptor; experiment: SEAP reporter expression in pGHRHr/293 cells transiently transfected with pha180SEAP; type: cell-based; design: host or cells: human fetal kidney 293 cells (pGHRHr/293), stably expressing, G418-selected; settings: transiently transfected pGHRHr/293 cells, 6 hours
Experimental: Samples were allowed to set for 5 minutes.
The efficacy of the cAMP-responsive promoter was evaluated by transient transfection assays using 293 and pGHRHr/293 cells. Transiently transfected 293 cells were stimulated with 1 mM 8-bromo cAMP for 20 hours, while pGHRHr/293 cells were stimulated with various concentrations of recombinant human GHRH for 6 hours.
The ability of GHRH to stimulate the expression of the SEAP reporter cDNA was evaluated using pGHRHr/293 cells transiently transfected with pha180SEAP. Cells were incubated with various doses of GHRH(1-44)NH2 (10^-10 to 10^-6 M) for 6 hours and media was then assayed for SEAP activity.

[4] = biological target: T1, porcine GHRH receptor; experiment: cAMP accumulation assay of the pGHRHr/293 cell line; type: cell-based; design: host or cells: human fetal kidney 293 cells (pGHRHr/293), stably expressing, G418-selected; settings: pGHRHr/293 cells, 45 minutes, 10^-12 to 10^-6 M
Experimental: The media was then replaced with DME containing 0.1% BSA and 0.1 mM 3-isobutyl-1-methyl-xanthine. Doses of recombinant human GHRH (1-44)NH2 doses, 1×10^-6 M to 1×10^-12 M, were added and the cells were incubated for 45 minutes at 37° C. They were lysed in 60% ethanol and cAMP levels were quantitated by an immunoassay kit (Amersham). After performing the cAMP EIA, data was analyzed using Fourfit, a four parameter logistic curve fitting program.
as §1

[5] = primary rat pituitary cell cultures, 3 hours
[6] = pGHRHr/SEAP/293 cells, 16 hour incubation

Substance | ED50 of GH secretion [1, 5] | increase in GH secretion into the medium [1, 5] | potency relative to synthetic GHRH (times as potent) ([1]; rat pituitary bioassay) | calculated ED50 of SEAP dose-response curves ([2]; after 12, 14, 16 and 18 hours of exposure, not significantly different) | SEAP activity increase over the 12-16 hour time points ([2]; at 18 hours) | SEAP activity increase over the 12-16 hour time points ([2]; at 20 hours) | increase in SEAP activity ([2]; pGHRHr/SEAP/293 #815-4, between 12 and 18 hours of exposure) | calculated ED50 of SEAP expression [2, 6] | increase in SEAP expression ([2]; pGHRHr/SEAP/293 cells, 16 hour incubation, 10^-13 to 10^-7 M) | potency relative to synthetic GHRH (times as potent) ([2]; pGHRHr/SEAP/293 reporter bioassay, p<0.0001) | increase in the expression of the reporter protein (SEAP) ([3]; 10^-10 to 10^-6 M) | ED50 of SEAP reporter expression [3] | calculated ED50 of increase in intracellular cAMP concentration [4] | EC50 ([1]; primary rat pituitary cell cultures, 3 hours, read-out: ED50 of GH secretion) | increase in SEAP expression ([2]; human, pghrhr/seap/293 cells, 16 h) | minimal detectable dose [2, 6] | EC50 ([2]; read-out: calculated ED50 of SEAP expression, pGHRHr/SEAP/293 cells, 16 hour incubation)
recombinant human GHRH (1-44)NH2: Recombinant human GHRH(1-44)NH2 obtained from BioNebraska, Inc. as a powder | 2.16±1.04×10^-10 M | 3.1 fold | 1.69±0.67 times | 0.261 nM | 1.3 fold | 1.7 fold | 4.8 fold | 4.26±0.28×10^-11 M | 9.1 fold | 1.83±0.13 times | 2.5 fold | 0.51 nM | 8.4±3.6×10^-9 M | – | – | – | –
synthetic human GHRH (1-44)NH2: Synthetic human GHRH(1-44)NH2 purchased from Peninsula; reference preparation [reference compound] | – | – | – | – | – | – | – | – | – | – | – | – | – | 0.364 nM | 9.1 fold | 1.47 pM | 0.0778 nM
